Key:
Test in all cases: cell-based or functional assay
[1] = target: T1, E2 envelope protein on HCV euvirus (HCVcc) particles, strain JFH1 (2a) (Hepatitis C virus strain JFH1 (2a))
[2] = target: T2, E2 envelope protein on HCV euvirus (HCVcc) particles, strain PR79 (1b) (Hepatitis C virus strain PR79 (1b))
[3] = target: T3, E2 envelope protein on HCV euvirus (HCVcc) particles, strain D183 (2a) (Hepatitis C virus strain D183 (2a))
[4] = target: E2 envelope protein on HCV euvirus particles, strain PR52B6M (1b) (Hepatitis C virus strain PR52B6M (1b))
[5] = target: E2 envelope protein on HCV euvirus (HCVcc) particles, strain Con1 (1b) (Hepatitis C virus strain Con1 (1b))
[6] = target: T1, E2 envelope protein on HCV euvirus …; remark: listed apart in the source
[7] = target: E2 envelope protein on HCV euvirus (HCVcc) particles, strain PR26 (1b) (Hepatitis C virus strain PR26 (1b))
[8] = target: E2 envelope protein on HCV euvirus (HCVcc) particles, strain S52 (3a) (Hepatitis C virus strain S52 (3a))
[9] = target: T2, E2 envelope protein on HCV euvirus …; remark: listed apart in the source
[10] = target: E2 envelope protein on HCV euvirus (HCVcc) particles, strain PR63 (2a) (Hepatitis C virus strain PR63 (2a))
[11] = target: E2 envelope protein on HCV euvirus (HCVcc) particles, strain HK6a (6a) (Hepatitis C virus strain HK6a (6a))
[12] = target: E2 envelope protein on HCV euvirus (HCVcc) particles, strain PR52 (1b) (Hepatitis C virus strain PR52 (1b))
[13] = target: E2 envelope protein on HCV euvirus (HCVcc) particles, strain SA13 (5a) (Hepatitis C virus strain SA13 (5a))
[14] = target: T3, E2 envelope protein on HCV euvirus …; remark: listed apart in the source
[15] = target: E2 envelope protein on HCV euvirus (HCVcc) particles, strain J8 (2b) (Hepatitis C virus strain J8 (2b))

B1: human monoclonal antibody 8D6 (antibody, V domains shown)
VH: EVQLVQSGSELKKPGASLKLSCKASGYTYITPAMNWVRQAPGHGLEWMGGINTNTGNPTYAQGFAGRFVFSWDTSVSTAYLHISSLKTEDTAVYYCADTRIFSCRRGTCYGGFDVWGQGTMVTVSS
VL: DIQMTQSPSSLSASVGDRITITCRASQSISNFLNWFQHRPGKAPKLLIYGATILQSGVPSRFSGSGSGTDFTLTISSLQPEDFATYYCQQSDSSTYIFGQGTKVEIK
inhibition rate of HCV euvirus, at antibody concentration higher than 0.4 µg/ml [1]: > 90% | inhibition rate of HCV euvirus, at antibody concentration higher than 0.4 µg/ml [2]: > 90% | inhibition rate of HCV euvirus, at antibody concentration higher than 0.4 µg/ml [3]: > 90% | inhibition rate of HCV euvirus, at antibody concentration higher than 0.4 µg/ml [4]: > 90% | IC50 (µg/ml), micro neutralization of HCV euvirus (NS5A-positive foci in Huh-7.5 cells) [5]: 2.43 µg/mL | IC50 (µg/ml), micro neutralization of HCV euvirus (NS5A-positive foci in Huh-7.5 cells) [6]: 0.003 µg/mL | IC50 (µg/ml), micro neutralization of HCV euvirus (NS5A-positive foci in Huh-7.5 cells) [7]: 0.412 µg/mL | IC50 (µg/ml), micro neutralization of HCV euvirus (NS5A-positive foci in Huh-7.5 cells) [8]: 0.01 µg/mL | IC50 (µg/ml), micro neutralization of HCV euvirus (NS5A-positive foci in Huh-7.5 cells) [9]: < 0.08 µg/mL | IC50 (µg/ml), micro neutralization of HCV euvirus (NS5A-positive foci in Huh-7.5 cells) [10]: < 0.016 µg/mL | IC50 (µg/ml), micro neutralization of HCV euvirus (NS5A-positive foci in Huh-7.5 cells) [11]: 0.0015 µg/mL | IC50 (µg/ml), micro neutralization of HCV euvirus (NS5A-positive foci in Huh-7.5 cells) [12]: < 0.08 µg/mL | IC50 (µg/ml), micro neutralization of HCV euvirus (NS5A-positive foci in Huh-7.5 cells) [13]: 0.087 µg/mL | IC50 (µg/ml), micro neutralization of HCV euvirus (NS5A-positive foci in Huh-7.5 cells) [14]: < 0.08 µg/mL | IC50 (µg/ml), micro neutralization of HCV euvirus (NS5A-positive foci in Huh-7.5 cells) [15]: 10 µg/mL
